Target: the molecule itself
Experiment: negative-stain TEM, homomeric self-assembly
Protocol: FIG. 2(a-b). Transmission electron micrographs of degreased I3-01 constructs. […] Images taken at 22,000× magnification.
Samples were prepared for negative stain EM by diluting to 0.05-0.075 mg/mL using a Tris-based buffer, and 6.0 μL was incubated on a glow-discharged, copper, carbon-coated grid for 1 min before quickly immersing the grid in a 60 μL drop of water. The water was blotted off within seconds by Whatman™ No. 1 filter paper, and the grid was immediately dipped into a 6.0 μL drop of stain (2% w/v uranyl formate). The stain was immediately blotted away and within seconds the grid was dipped into another 6.0 μL drop of stain, which was left on the grid for 30 seconds. At the end of this time, the stain was blotted dry and allowed to air dry for 5 minutes prior to imaging. Images were recorded on a FEI Morgagni 268 transmission electron microscope equipped with a Gatan US4000 CCD camera, using Leginon™ software for data collection at a nominal magnification of 22,000× at a defocus range comprised between −1 um and −4 um.

B1: I3-01 H35D (designed binder)
chain: YKDEKMEELFKKHKIVAVLRANSVEEAKKKALAVFLGGVDLIEITFTVPDADTVIKELSFLKEMGAIIGAGTVTSVEQCRKAVESGAEFIVSPHLDEEISQFCKEKGVFYMPGVMTPTELVKAMKLGHTILKLFPGEVVGPQFVKAMKGPFPNVKFVPTGGVNLDNVCEWFKAGVLAVGVGSALVKGTPVEVAEKAKAFVEKIRGCTEQKLISEEDLHHHHHH
notes: One-component (homomeric) icosahedral nanoparticle secreted from HEK293F cells; also called H35D variant; degreased I3-01 construct
  binding result: binds

B2: I3-01 'secretion mutations' (H35D/L171Q/S177E/V180N) (designed binder)
chain: YKDEKMEELFKKHKIVAVLRANSVEEAKKKALAVFLGGVDLIEITFTVPDADTVIKELSFLKEMGAIIGAGTVTSVEQCRKAVESGAEFIVSPHLDEEISQFCKEKGVFYMPGVMTPTELVKAMKLGHTILKLFPGEVVGPQFVKAMKGPFPNVKFVPTGGVNLDNVCEWFKAGVQAVGVGEALNKGTPVEVAEKAKAFVEKIRGCTEQKLISEEDLHHHHHH
notes: One-component (homomeric) icosahedral nanoparticle secreted from HEK293F cells; also called H35D/L171Q/S177E/V180N quadruple mutant
  binding result: binds

Reference: patent US20230075095A1 (University of Washington, published 2023)
